The assay has as its target LDL receptor (UniProt P01130). In words: cell-based or functional assay.

Sequence of LDL receptor (P01130 22-860 limits assumed): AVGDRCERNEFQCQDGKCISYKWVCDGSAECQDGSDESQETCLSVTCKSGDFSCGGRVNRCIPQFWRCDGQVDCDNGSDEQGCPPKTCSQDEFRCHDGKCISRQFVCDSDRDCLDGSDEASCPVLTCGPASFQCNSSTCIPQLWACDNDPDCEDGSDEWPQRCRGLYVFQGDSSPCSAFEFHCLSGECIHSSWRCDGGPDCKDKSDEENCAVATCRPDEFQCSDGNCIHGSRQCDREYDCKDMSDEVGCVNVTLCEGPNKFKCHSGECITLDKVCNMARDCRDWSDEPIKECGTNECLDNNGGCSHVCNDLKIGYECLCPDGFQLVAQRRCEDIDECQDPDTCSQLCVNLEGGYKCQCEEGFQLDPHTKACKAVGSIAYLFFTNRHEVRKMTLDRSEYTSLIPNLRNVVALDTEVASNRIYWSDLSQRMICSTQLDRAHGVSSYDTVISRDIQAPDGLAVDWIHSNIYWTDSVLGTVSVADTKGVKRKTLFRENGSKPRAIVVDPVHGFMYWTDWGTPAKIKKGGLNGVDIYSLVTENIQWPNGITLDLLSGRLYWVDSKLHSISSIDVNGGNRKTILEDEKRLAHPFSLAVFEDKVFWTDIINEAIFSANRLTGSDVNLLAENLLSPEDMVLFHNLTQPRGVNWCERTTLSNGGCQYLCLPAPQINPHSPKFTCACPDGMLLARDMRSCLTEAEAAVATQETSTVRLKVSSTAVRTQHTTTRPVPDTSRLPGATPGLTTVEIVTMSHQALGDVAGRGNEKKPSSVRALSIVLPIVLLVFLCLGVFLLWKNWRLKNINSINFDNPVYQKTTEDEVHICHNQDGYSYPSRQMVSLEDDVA

As to “distearyl-glycyl-apoE-3^129-169(Q142) (peptide)”, the expression (transfection of 293 epithelial cells with peptide:DNA complexes), relative to wild-type apoE peptide complexes (% of wild-type apoE peptide complexes) was determined as 5.

Values taken from US6344436.
